Measurements taken from US20250109203A1.
Substitutions are numbered along the chain they refer to.

B1: hu1D7v11 VHH-hIgG1 Fc-NNT (monomeric) (VHH)
VHH: EVQLLESGGGEVQPGGSLRLSCVASRGKISQYRMGWYRQAPGKGLEWVAAISNTGDAAEYVDSVKGRFTISRDSTKNAVYLQMSSLRAEDTAVYKCNSVEDILAWGQGTLVTVKP
B2: hu1D7v13 VHH-hIgG1 Fc-NNT (monomeric) (VHH)
VHH: B1 VHH with A50H, T54S
B3: hu1D7v25 VHH-hIgG1 Fc-NNT (monomeric) (VHH)
VHH: B1 VHH with A50H, N97A
B4: hu1D7v32 VHH-hIgG1 Fc-NNT (monomeric) (VHH)
VHH: B1 VHH with G44E, A50H, D62E
B5: hu1D7v28 VHH-hIgG1 Fc-NNT (monomeric) (VHH)
VHH: B1 VHH with V23A, G44E, A50H
B6: hu1D7v33 VHH-hIgG1 Fc-NNT (monomeric) (VHH)
VHH: B1 VHH with G44E, A50H, G66D
B7: hu1D7v34 VHH-hIgG1 Fc-NNT (monomeric) (VHH)
VHH: B1 VHH with G44E, A50H, S74N, T75A
B8: hu1D7v36 VHH-hIgG1 Fc-NNT (monomeric) (VHH)
VHH: B1 VHH with G44E, A50H, K95Y
B9: hu1D7v30 VHH-hIgG1 Fc-NNT (monomeric) (VHH)
VHH: B1 VHH with G44E, A50H, E59Y
B10: hu1D7v24 VHH-hIgG1 Fc-NNT (monomeric) (VHH)
VHH: B1 VHH with A50H, S98A
B11: hu1D7v35 VHH-hIgG1 Fc-NNT (monomeric) (VHH)
VHH: B1 VHH with G44E, A50H, V79L
B12: hu1D7v1 VHH-hIgG1 Fc-NNT (monomeric) (VHH)
VHH: B1 VHH with A50H
B13: hu1D7v23 VHH-hIgG1 Fc-NNT (monomeric) (VHH)
VHH: B1 VHH with A50H, V79L
B14: hu1D7v22 VHH-hIgG1 Fc-NNT (monomeric) (VHH)
VHH: B1 VHH with A50H, A78T
B15: hu1D7v14 VHH-hIgG1 Fc-NNT (monomeric) (VHH)
VHH: B1 VHH with A50H, D56G
B16: hu1D7v17 VHH-hIgG1 Fc-NNT (monomeric) (VHH)
VHH: B1 VHH with A50H, E59Y
B17: hu1D7v18 VHH-hIgG1 Fc-NNT (monomeric) (VHH)
VHH: B1 VHH with A50H, V61A, D62E
B18: hu1D7v19 VHH-hIgG1 Fc-NNT (monomeric) (VHH)
VHH: B1 VHH with A50H, G66D
B19: hu1D7v15 VHH-hIgG1 Fc-NNT (monomeric) (VHH)
VHH: B1 VHH with A50H, A57S
B20: hu1D7v16 VHH-hIgG1 Fc-NNT (monomeric) (VHH)
VHH: B1 VHH with A50H, A58T
B21: hu1D7v26 VHH-hIgG1 Fc-NNT (monomeric) (VHH)
VHH: B1 VHH with A50H, K95Y
B22: hu1D7v31 VHH-hIgG1 Fc-NNT (monomeric) (VHH)
VHH: B1 VHH with G44E, A50H, D62A, S63P
B23: hu1D7v29 VHH-hIgG1 Fc-NNT (monomeric) (VHH)
VHH: B1 VHH with Q31S, G44E, A50H
B24: 1D7 VHH-hIgG1 Fc-NNT (monomeric, parental) (VHH)
VHH: QVQLVQSGGGLVQPGGSLRLSCVASRGKISQYRMGWYRQAPGKQRELVAHISNTGDAAEYVDSVKGRFTISRDSTKNAVYLQMNSLKPEDTAVYKCNSVEDILAWGQGTQVTVKP

target: human γδ TCR (Vγ9Vδ2) on human Vδ2+ γδ T cells (human) (UniProt A0JD36); assay: flow cytometry on expanded human Vδ2+ γδ T cells, nonlinear fit

Row | Kd [nM] | Binder
1 | 42.2 | B1
2 | 18.2 | B2
3 | 866000 | B3
4 | 35.7 | B4
5 | 15.7 | B5
6 | 13 | B6
7 | 11.7 | B7
8 | 1500 | B8
9 | 38.4 | B9
10 | 9440 | B10
11 | 8.4 | B11
12 | 5.23 | B12
13 | 18.1 | B13
14 | 29.1 | B14
15 | 21.5 | B15
16 | 20.1 | B16
17 | 42.5 | B17
18 | 26.7 | B18
19 | 16.4 | B19
20 | 24.6 | B20
21 | 29 | B21
22 | 16.7 | B22
23 | 7230 | B23
24 | 6.09 | B24
